{"source": "patent US20250034594A1", "about": "“RNA-GUIDED GENOME RECOMBINEERING AT KILOBASE SCALE” (THE BOARD OF TRUSTEES OF THE LELAND STANFORD JUNIOR …, priority 2021, published 2025)", "molecules": {"B1": {"name": "SSAP_211: SEQ ID NO: 380; unclassified Streptomyces (protein, listed as Streptomyces sp.)", "chain": "SQIGNAIATRDEGPAAQIEVYRDEYAALVPSHVNADQWVRLAVGAIRGNDDLLKAAGNDIGLFLREMKTAARLGLEPGTEQFYLTPRKSKAHGGRPVIKGIVGYQGIVELIYRAGAASTVIVEAVRQNDVFRYVPGRDDRPVHEIDWFGQDRGPLVGVYAYAVMKDGAVSKVVVLNKARVMELKAKSDSKNSPYSPWNTNEEAMWLKSGVRQLAKWVPTSAEFRRDQLLAHTDTADGVIASVSAPPLPPQSAALEDLDPDDEGPIDGELLDD"}, "B2": {"name": "SSAP_6: SEQ ID NO: 175 (protein)", "chain": "STALATLAGKLAERVGMDSVDPQELITTLRQTAFKGDASDAQFIALLIVANQYGLNPWTKEIYAFPDKQNGIVPVVGVDGWSRIINENQQFDGMDFEQDNESCTCRIYRKDRNHPICVTEWMDECRREPFKTREGREITGPWQSHPKRMLRHKAMIQCARLAFGFAGIYDKDEAERIVENTAYTAERQPERDITPVNDETMQEINTLLIALDKTWDDDLLPLCSQIFRRDIRASSELTQAEAVKALGFLKQKATEQKVAA"}, "B3": {"name": "SSAP_288: SEQ ID NO: 457; Clostridium thermobutyricum (protein, listed as Clostridium thermobutyricum)", "chain": "QSTGDIVFPQNYNYSNALKSAQLILAETVDRNKVPVLQSCSKPSICNALLDMVIQGLSPAKKQCYFVPYGGKLQLMKSYLGNIAATKRLKGVKDVFANVIYEGDVFEYKLNLNTGLIEIEKHEQKFENISKKILGAYAVVVRENQNNYVEVMNIEQIKNAWNQGAAKGNSQAHKNFAEEMAKKTVINRACKRFVNTSDDSDTLIESINRTNEYKEEDIIETTKSEVGEEIKENANTENLGLEDTEVVEAEVIENIEFEGDK"}, "B4": {"name": "SSAP_184: SEQ ID NO: 353; Streptomyces scabiei (protein, listed as Streptomyces scabiei)", "chain": "DADRMARIALTLIRKNPDLATCSGESFLGALMTCSQLGFEPGSPTQEAFIVPYKGEATFQLGYQGMVTLFYQHPMASSVKVETVRENDYFEHEEGLEEKLVHRPCKTGPRGKAIAYYSVARLINGGRTFKVMYPAEIEERREKLPSKNSPAWRNSYDEMAKKTVLRNHFKALPKSAELARAMAHDGTVRTDWQPDAIDVPPEYLSEPQRPELGTGSTQ"}, "B5": {"name": "SSAP_20: SEQ ID NO: 189; CK3_26380 butyrate-producing bacterium SS3/4 (protein)", "chain": "ENATAVQQAESQGTQDFSAPVKHNTDFSLGIFGSSDNFLMATQMAKAFASSTIVPKEYQGNFANGLVAMDIANRLKTSPFMVMQNLDVIQGRPAWRATFLIAMINRSKKYDIELQFEEKRDKNGKPYSCTCWTTKDGRKVTGIEVTMDMAEAEGWTKKNGSKWITMPQVMLRYRAASFFSRMNCPELSNGLYTTDEVYEMADSEYKVYNLEDEVKRDLAQNANKEEFVAPPNETAPESESKGSEPLDPAVENQKSGDTPDWMKPETM", "modifications": "butyrate-producing bacterium SS3/4"}, "B6": {"name": "SSAP_235: SEQ ID NO: 404; Streptomyces sp. adm13(2018) (protein, listed as Streptomyces sp.)", "chain": "SQIGNEIARQSHSPAAIIEQHKADLAVVAASHVRVDTFARLAVGVLRQNEKLAAAAANNPGSLMSALMTAARLGLEPGTEQFYLRPIKRKGQLEVQGIVGYQGIVELIYNAGAAQSVVVEVVRARDEFAWTPGALDEHRPPRWPGAMKQPHHKVDWFGDRGPLVGAYAYAVMQGGAISKVVVLNRDHIARAKAKSDGADTDYSPWRTDEEAMWLKTAARRLGKWVPTSAEKRTGVIERLDTPPAPLNEIDPDEDDEPIDGELVD"}, "B7": {"name": "SSAP_172: SEQ ID NO: 341; Staphylococcus pettenkoferi (protein, listed as Staphylococcus pettenkoferi)", "chain": "ATQKDFKNQISQKETQQKQEVQKKKKGPRQQVSDLLDRMAPEIEKALPNHLSADRMARVAMTAVSSNPKLLECDPKSFIGAVMQSAQLGLEPNTALGEAYLVPYAGKVNFQLSYLGLINLATRSGQYKAIYAHEVYAEDEFRYQYGLHKDLIHKPVDNPKGKPIGYYAVYHLLNGGYDFVYWTTERIQKHAKKYSFAVQKGYQSPWNDEFDAMAKKTVLKDLLKYAPKSIEMNNAVRSDDKQSELSDEGVVIDVTNYDEENGEEK"}, "B8": {"name": "SSAP_16: SEQ ID NO: 185 (protein)", "chain": "MAKENYSDPNGKLLNSITTFEVNGEEVKLSGNIIRDYLVSGNAEVTDQEIIMFLQLCKYQKLNPFLNEAYLVKFKNTKGPDKPAQIIVSKEAFMKRAETHEQYDGFEAGVIVERGGEIIELEGAVSLASDKLLGGWAKVFRKDRNRPVSVRISEKEFNKRQSTWNTMPLTMMRKTAVVNAMREAFPDNLGAMYTEEEQGSLQNTETSVQQEIKQNANAEVLDIPSQQNEVPDFKEVREPEHVEMPPIYGEQQSTPPARPY"}}}
{"system": "endogenous genome targets (ACTB, HSP90AA1)", "experiment": "Arrayed SSAP library screening, mKate knock-in assay (editing efficiency)", "type": "cell-based", "conditions": "fold over negative control (Flag_HA); average of HSP90 and ACTB; 3 days after transfection", "protocol": "(§1) Arrayed SSAP library screening on endogenous genome targets (ACTB. HSP90AA1) using mKate knock-in assay.\n(§2) SSAP-encoding plasmids were purified and quantified.\n(§3) Each SSAP encoding plasmid was tested in duplicate, including a negative control (same plasmid encoding Flag_HA which is not expected to promote gene editing). Transfections were in 96-well plates and transfection efficiency was estimated to be 50%.\n(§4) Three days after transfection, mKate positive cells and cell viability were quantified across all replicates, along with positive (original RecT SSAP) and negative (Flag-HA control protein) controls. […] At the same time, the cell viability was measured by live cell counts via flow cytometry, to help quantify the fitness effect of SSAP on mammalian cells.\n(§5) SSAP proteins are identified by Uniparc deposit number and SEQ ID NO. Alignment numbers correspond to SSAPs in FIGS. 58, 59, and 60."}
{"molecule": "B1", "Editing Efficiency (Normalized, Average, two targets)": 5.517}
{"molecule": "B2", "Editing Efficiency (Normalized, Average, two targets)": 4.879}
{"molecule": "B3", "Editing Efficiency (Normalized, Average, two targets)": 3.832}
{"molecule": "B4", "Editing Efficiency (Normalized, Average, two targets)": 5.689}
{"molecule": "B5", "Editing Efficiency (Normalized, Average, two targets)": 5.982}
{"molecule": "B6", "Editing Efficiency (Normalized, Average, two targets)": 4.251}
{"molecule": "B7", "Editing Efficiency (Normalized, Average, two targets)": 4.239}
{"molecule": "B8", "Editing Efficiency (Normalized, Average, two targets)": 8.461}
{"system": "endogenous genome targets (ACTB, HSP90AA1)", "experiment": "Arrayed SSAP library screening, mKate knock-in assay (editing efficiency)", "type": "cell-based", "conditions": "percent of mKate knock-in; average of HSP90 and ACTB; 3 days after transfection", "protocol": "as §1, §2, §3, §4, §5"}
{"molecule": "B1", "Editing Efficiency (Absolute, Average, two targets)": 13.65}
{"molecule": "B2", "Editing Efficiency (Absolute, Average, two targets)": 12.075}
{"molecule": "B3", "Editing Efficiency (Absolute, Average, two targets)": 9.4725}
{"molecule": "B4", "Editing Efficiency (Absolute, Average, two targets)": 14.075}
{"molecule": "B5", "Editing Efficiency (Absolute, Average, two targets)": 14.85}
{"molecule": "B6", "Editing Efficiency (Absolute, Average, two targets)": 10.53}
{"molecule": "B7", "Editing Efficiency (Absolute, Average, two targets)": 10.4925}
{"molecule": "B8", "Editing Efficiency (Absolute, Average, two targets)": 20.95}
{"system": "mammalian cells", "experiment": "Arrayed SSAP library screening, cell viability by live cell counts via flow cytometry", "type": "cell-based", "conditions": "not given", "protocol": "as §3, §4, §5"}
{"molecule": "B1", "Cell Viability (Average, two targets)": 0.3563}
{"molecule": "B2", "Cell Viability (Average, two targets)": 1.282}
{"molecule": "B3", "Cell Viability (Average, two targets)": 0.6836}
{"molecule": "B4", "Cell Viability (Average, two targets)": 0.7361}
{"molecule": "B5", "Cell Viability (Average, two targets)": 1.174}
{"molecule": "B6", "Cell Viability (Average, two targets)": 0.8847}
{"molecule": "B7", "Cell Viability (Average, two targets)": 0.9046}
{"molecule": "B8", "Cell Viability (Average, two targets)": 1.146}
{"system": "gene editing with Cas9", "experiment": "Screen of 322 new SSAP proteins, gene editing activity with Cas9 (Table 5)", "type": "cell-based", "design": "Cas9 with SSAP activity: scale not given here", "conditions": "not given", "in_short": "(§6)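 First, 322 new single-strand annealing proteins are identified from sequences. Next they are synthesized. Finally each is assayed for editing in combination with Cas9 and, separately, dCas9.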"}
{"molecule": "B1", "Cas9 with SSAP activity": 2.771}
{"molecule": "B2", "Cas9 with SSAP activity": "−8.056"}
{"molecule": "B4", "Cas9 with SSAP activity": "−0.836"}
{"molecule": "B5", "Cas9 with SSAP activity": "−0.183"}
{"molecule": "B6", "Cas9 with SSAP activity": "−5.016"}
{"molecule": "B7", "Cas9 with SSAP activity": "−2.356"}
{"molecule": "B8", "Cas9 with SSAP activity": "−0.858"}
{"system": "gene editing with Cas9", "experiment": "Screen of 322 new SSAP proteins, gene editing activity with Cas9 (Table 5)", "type": "cell-based", "design": "Cas9 with SSAP activity: scale not given here", "conditions": "normalized", "in_short": "as §6"}
{"molecule": "B1", "Cas9 with SSAP activity (normalized)": 4.679}
{"molecule": "B4", "Cas9 with SSAP activity (normalized)": "−0.308"}
{"molecule": "B5", "Cas9 with SSAP activity (normalized)": "−0.399"}
{"molecule": "B6", "Cas9 with SSAP activity (normalized)": "−0.970"}
{"molecule": "B7", "Cas9 with SSAP activity (normalized)": "−0.702"}
{"molecule": "B8", "Cas9 with SSAP activity (normalized)": "−0.452"}
{"system": "gene editing with dCas9", "experiment": "Screen of 322 new SSAP proteins, gene editing activity with dCas9 (Table 5)", "type": "cell-based", "design": "dCas9 with SSAP activity: scale not given here", "conditions": "not given", "in_short": "as §6"}
{"molecule": "B1", "dCas9 with SSAP activity": "−5.365"}
{"molecule": "B2", "dCas9 with SSAP activity": "−5.703"}
{"molecule": "B4", "dCas9 with SSAP activity": "−2.910"}
{"molecule": "B5", "dCas9 with SSAP activity": "−4.179"}
{"molecule": "B6", "dCas9 with SSAP activity": "−5.457"}
{"molecule": "B7", "dCas9 with SSAP activity": "−5.287"}
{"molecule": "B8", "dCas9 with SSAP activity": "−5.666"}
{"system": "gene editing with dCas9", "experiment": "Screen of 322 new SSAP proteins, gene editing activity with dCas9 (Table 5)", "type": "cell-based", "design": "dCas9 with SSAP activity: scale not given here", "conditions": "normalized", "in_short": "as §6"}
{"molecule": "B1", "dCas9 with SSAP activity (normalized)": "−0.904"}
{"molecule": "B2", "dCas9 with SSAP activity (normalized)": "−1.399"}
{"molecule": "B4", "dCas9 with SSAP activity (normalized)": "−0.482"}
{"molecule": "B5", "dCas9 with SSAP activity (normalized)": "−0.615"}
{"molecule": "B6", "dCas9 with SSAP activity (normalized)": "−1.152"}
{"molecule": "B7", "dCas9 with SSAP activity (normalized)": "−0.724"}
{"molecule": "B8", "dCas9 with SSAP activity (normalized)": "−1.047"}
{"system": "gene editing with Cas9 and dCas9", "experiment": "Screen of 322 new SSAP proteins, activity across all experiments (Cas9 and dCas9, Table 5)", "type": "cell-based", "design": "scale not given here", "conditions": "not given", "in_short": "as §6"}
{"molecule": "B1", "Activity across all experiments": "−1.297"}
{"molecule": "B2", "Activity across all experiments": "−6.879"}
{"molecule": "B4", "Activity across all experiments": "−1.873"}
{"molecule": "B5", "Activity across all experiments": "−2.181"}
{"molecule": "B6", "Activity across all experiments": "−5.237"}
{"molecule": "B7", "Activity across all experiments": "−3.822"}
{"molecule": "B8", "Activity across all experiments": "−3.262"}
